The results in this text go back to US6825167.

The target in assay [1] is αvβ3 integrin (human) (UniProt P06756). Description: cell-based or functional assay.
Assay [2] shares this target. The assay can be described thus: attachment of αvβ3-expressing WM35 cells to wells coated at 1 nmole/well, Cell Counting Kit-8.

Sequence of UniProt P06756 (P06756 31-1048, chain 1 of 2): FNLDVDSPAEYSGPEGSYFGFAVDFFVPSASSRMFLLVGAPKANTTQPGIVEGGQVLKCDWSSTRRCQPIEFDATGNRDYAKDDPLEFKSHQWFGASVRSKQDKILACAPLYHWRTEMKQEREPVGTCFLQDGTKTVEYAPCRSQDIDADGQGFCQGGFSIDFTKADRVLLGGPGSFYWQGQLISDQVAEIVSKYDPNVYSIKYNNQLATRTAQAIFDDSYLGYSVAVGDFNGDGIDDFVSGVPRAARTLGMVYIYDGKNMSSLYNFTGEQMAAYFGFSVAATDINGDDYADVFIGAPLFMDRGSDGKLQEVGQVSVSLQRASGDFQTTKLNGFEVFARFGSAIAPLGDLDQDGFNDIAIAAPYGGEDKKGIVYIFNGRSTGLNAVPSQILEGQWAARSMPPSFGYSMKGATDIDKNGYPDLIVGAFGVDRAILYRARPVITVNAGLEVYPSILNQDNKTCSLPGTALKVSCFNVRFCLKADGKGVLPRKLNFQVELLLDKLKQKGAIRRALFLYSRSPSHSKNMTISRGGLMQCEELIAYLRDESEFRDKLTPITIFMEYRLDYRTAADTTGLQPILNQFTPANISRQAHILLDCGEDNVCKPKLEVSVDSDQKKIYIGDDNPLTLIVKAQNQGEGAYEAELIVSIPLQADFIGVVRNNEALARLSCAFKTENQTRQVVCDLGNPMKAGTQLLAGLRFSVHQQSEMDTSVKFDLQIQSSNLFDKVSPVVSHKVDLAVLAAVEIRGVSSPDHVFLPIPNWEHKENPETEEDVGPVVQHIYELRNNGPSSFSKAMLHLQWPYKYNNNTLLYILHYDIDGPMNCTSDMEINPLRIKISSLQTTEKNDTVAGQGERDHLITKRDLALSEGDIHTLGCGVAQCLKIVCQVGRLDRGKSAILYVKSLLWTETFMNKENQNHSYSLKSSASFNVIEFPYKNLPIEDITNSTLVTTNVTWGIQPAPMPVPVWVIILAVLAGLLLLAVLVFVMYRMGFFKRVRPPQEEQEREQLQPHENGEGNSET
Sequence of UniProt P06756 (P05106 27-788, chain 2 of 2, further chain): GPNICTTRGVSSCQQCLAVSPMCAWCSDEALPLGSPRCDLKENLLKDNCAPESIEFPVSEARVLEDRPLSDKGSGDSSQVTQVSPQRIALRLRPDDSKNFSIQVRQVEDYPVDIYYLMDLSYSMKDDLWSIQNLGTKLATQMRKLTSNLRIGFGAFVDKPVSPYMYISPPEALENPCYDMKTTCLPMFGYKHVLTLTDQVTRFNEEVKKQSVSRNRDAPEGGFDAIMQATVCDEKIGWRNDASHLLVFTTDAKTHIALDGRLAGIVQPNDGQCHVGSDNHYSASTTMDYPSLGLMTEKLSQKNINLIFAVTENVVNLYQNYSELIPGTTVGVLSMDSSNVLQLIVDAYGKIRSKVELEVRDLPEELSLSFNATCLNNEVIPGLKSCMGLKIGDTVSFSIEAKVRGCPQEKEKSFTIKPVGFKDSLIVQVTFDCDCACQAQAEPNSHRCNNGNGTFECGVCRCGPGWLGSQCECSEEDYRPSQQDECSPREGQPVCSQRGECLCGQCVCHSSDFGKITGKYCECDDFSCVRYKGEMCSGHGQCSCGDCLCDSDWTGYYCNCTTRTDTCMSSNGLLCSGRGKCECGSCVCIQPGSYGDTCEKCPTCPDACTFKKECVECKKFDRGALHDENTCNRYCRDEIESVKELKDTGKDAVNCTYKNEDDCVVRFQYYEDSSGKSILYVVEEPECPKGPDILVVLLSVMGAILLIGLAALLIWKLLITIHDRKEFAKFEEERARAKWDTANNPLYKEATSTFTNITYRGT

In the assay with αvβ3 integrin (human) [1], “human endostatin-RGD (from UniProt P39060 1572-1754)” showed an HUVEC attachment to coated wells (100% = gelatin-coated wells) of 80% and an increase of HUVEC attachment over native endostatin of 40%.

Substance “human endostatin (from UniProt P39060 1572-1754)” yielded a percent of cells attached (100% = gelatin-coated wells) in the assay with αvβ3 integrin (human) [2] of 18%.

In turn, “RGD-human endostatin (from UniProt P39060 1572-1754)” showed a percent of cells attached (100% = gelatin-coated wells) in the assay with αvβ3 integrin (human) [2] of 60%. In the assay with αvβ3 integrin (human) [1], this substance came in with an HUVEC attachment to coated wells (100% = gelatin-coated wells) of 80%, a direct binding of [125I]-RGD-endostatin to HUVEC (pmole per 10^6 cells) of 1.2 pmol and an increase of HUVEC attachment over native endostatin of 40%.
